The values that follow come from patent US20220221455A1 (GlaxoSmithKline, published 2022).

This assay has as its target T1, PE-PilA fusion protein LVL-735 (Haemophilus influenzae).
T1 construct: also called PE-PilA drug substance; PE-PilA DS
T1 chain: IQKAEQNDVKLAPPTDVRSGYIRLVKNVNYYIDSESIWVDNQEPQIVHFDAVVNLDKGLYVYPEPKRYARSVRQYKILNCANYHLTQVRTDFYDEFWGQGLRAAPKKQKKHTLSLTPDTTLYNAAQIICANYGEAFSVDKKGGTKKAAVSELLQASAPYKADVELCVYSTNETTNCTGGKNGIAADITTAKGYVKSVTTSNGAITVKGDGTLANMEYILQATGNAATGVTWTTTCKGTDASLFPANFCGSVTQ
In words: HDX-MS, antibody/antigen complex at molar ratio 1:1.

B1: PEPilA/3 mAb (antibody, V domains shown)
VH: QGQLQQSGPELVKPGASVKMSCKASGYTFTDYVISWVKQRIGQGLEWIGEIHPGSGSIHYNEKFKGKATLTADKSSNTAYMQLSSLTSEDSAVYFCARRGLRRPWFAYWGQGTLVTVSA
VL: DIVLTQSPASLAVSLGQRATISCRASKSVSTSGYSYMHWFQQKPGQPPKLLIYLASNLESGVPARFSGSGSGTDFTLNIHPVEEEDAATYYCQHSRELPLTFGAGTKLELK
notes: Mouse anti-PilA monoclonal antibody; The isotype appears only as 'optionally an IgG2A' in an embodiment; It was biotinylated when used as detection antibody in the sandwich ELISA; also called mAb PEPilA/3; PilA mAb
Regarding B1, the binding result is on record as “binds”.
